In patent US8114968:

B1: 539B-M0042-B06 (Fab, V domains shown)
VH: EVQLLESGGGLVQPGGSLRLSCAASGFTFSFYHMEWVRQAPGKGLEWVSSISPSGGHTDYADSVKGRFTISRDNSKNTLYLQMNSLRAEDTAVYYCASLLSGTWGQGTLVTVSS
VL: DIQMTQSPDTLSLSPGERATLSCRASQTISSTFLAWYQQKPGQAPRLLIYGASTRAAGIPDRFIGSGSGTDFTLTISSLEPEDSAVYYCQQYDRSPTFGGGTKVEIK
B2: 539B-M0016-D01 (Fab, V domains shown)
VH: EVQLLESGGGLVQPGGSLRLSCAASGFTFSEYNMPWVRQAPGKGLEWVSYIYSSGGSTEYADSVKGRFTISRDNSKNTLYLQMNSLRAEDMAVYYCAKDLWEDSSTWGYGMDVWGQGTTVTVSS
VL: QSELTQPPSVSVSPGQTATITCSGDVSVHKSFCWYQQRPGQSPVLVIYQIDKRPSGVPERFSGSISGTTATLTISGTQATDEADYYCQGWDSTTYYVFGTGTKVTVL
B3: 539B-M0039-F01 (Fab, V domains shown)
VH: EVQLLESGGGLVQPGGSLRLSCAASGFTFSRYWMDWVRQAPGKGLEWVSGIYPSGGYTLYADSVKGRFTISRDNSKNTLYLQMNSLRAEDTAVYYCARHGDYMDVWGKGTTVTVSS
VL: NIQMTQSPSSVSASVGDRVTITCRASQDINYWLAWYQQKPGKAPKLLIYAASSLQSGVPSRFSGSGSGTDFTLTISSLQPEDFATYYCQRANSFPYTFGQGTKLEIK
B4: 539B-M0034-C04 (Fab, V domains shown)
VH: EVQLLESGGGLVQPGGSLRLSCAASGFTFSEYPMYWVRQAPGKGLEWVSVIYPSGGWTDYADSVKGRFTISRDNSKNTLYLQMNSLRAEDTAVYYCARMAVTGGSRFDYWGQGTLVTVSS
VL: DIQMTQSPSSLSASVGDRVSITCRASQNINSYLNWYQQKVGKAPKLLIFGAYTLHSGAPSRFSGSGSGTDFTLTISSLQPEDVATYYCQQTYTSYSFAQGTKLEIK
B5: 539B-M0041-B05 (Fab, V domains shown)
VH: EVQLLESGGGLVQPGGSLRLSCAASGFTFSEYPMYWVRQAPGKGLEWVSVIYPSGGWTDYADSVKGRFTISRDNSKNTLYLQMNSLRAEDTAVYYCARMAVTGGSRFDYWGQGTLVTVSS
VL: DIQMTQSPSSLSASVGDRVSITCRASQNINSYLNWYQQKVGKAPKLLIFGAYTLHSGAPSRFSGSGSGTDFTLTISSLQPEDVATYYCQQTYTSYSFAQGTKLEIK
B6: 539B-M0009-H08 (Fab, V domains shown)
VH: EVQLLESGGGLVQPGGSLRLSCAASGFTFSMYWMFWVRQAPGKGLEWVSSISSSGGHTFYADSVKGRFTISRDNSKNTLYLQMNSLRAEDTAVYYCARGSYSGYDPFDYWGRGTLVTVSS
VL: QYELTQPPALSVAPGETATITCGGDKIGRKSVNWYQQKAGQAPVLVIFYDNDRPSGITGRFSGSNSGNSATLTISRVEAGDEADFYCQVWGPNDFPLFGGGTKLTVL
B7: 539B-M0041-G01 (Fab, V domains shown)
VH: EVQLLESGGGLVQPGGSLRLSCAASGFTFSYYPMAWVRQAPGKGLEWVSYISSSGGLTTYADSVKGRFTISRDNSKNTLYLQMNSLRAEDTAVYYCARSPTYYDFWSGYWAGIFDYWGQGTLVTVSS
VL: DIQMTQSPSSLSASVGDRVTITCRASQSISYFLNWYQQKPGKAPKLLIYAASTLQGGVPSRFRGSGSGTDFTLTISSLQPEDFATYYCQHSYSTPPITFGPGTKVDIK

Target: human MMP-12 (human) (UniProt P39900)
Sequence (P39900 106-470 limits assumed): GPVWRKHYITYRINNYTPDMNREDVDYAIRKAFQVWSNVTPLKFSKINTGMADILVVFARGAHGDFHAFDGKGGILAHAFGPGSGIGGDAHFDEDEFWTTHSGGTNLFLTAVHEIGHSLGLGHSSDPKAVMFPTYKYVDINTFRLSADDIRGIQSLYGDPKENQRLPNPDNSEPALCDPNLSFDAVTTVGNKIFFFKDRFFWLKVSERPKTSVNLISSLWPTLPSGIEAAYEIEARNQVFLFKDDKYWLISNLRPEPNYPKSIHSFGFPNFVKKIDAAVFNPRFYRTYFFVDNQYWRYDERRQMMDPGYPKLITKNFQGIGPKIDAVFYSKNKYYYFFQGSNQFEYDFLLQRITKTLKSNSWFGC
Assay: cell-based or functional assay

| % of activity left with 100 nM in assay 04 Oct. 2006 [%] | % of activity left with 100 nM in assay 29 Aug. 2006 [%] | Binder |
| --- | --- | --- |
| 53.6 | – | B1 |
| 48.1 | – | B2 |
| 69.4 | 57.8 | B3 |
| 38.6 | 39.1 | B4 |
| 35.1 | – | B5 |
| 103 | – | B6 |
| 109 | 84.8 | B7 |
